Assay results: patent publication US20260265409A1 (NANJING LEADS BIOLABS, published 2026)
Where a chain is given by its changes, count along the chain named. In names and notes the source's numbering stands. Blank lines part the entries; values can stand above or below the binder they belong to.

How the values were obtained:
[1] = biological target: T1, recombinant human FAP protein (Sino Biological, Cat #10464-H07H) (human, UniProt Q12884 26-760); assay: ELISA, human FAP protein coated on the plate, detection with HRP goat anti-human IgG F(ab')2; unit from the axis 'Antibody Conc[nM]' and paragraph 217
T1 construct: Bought protein
T1 sequence: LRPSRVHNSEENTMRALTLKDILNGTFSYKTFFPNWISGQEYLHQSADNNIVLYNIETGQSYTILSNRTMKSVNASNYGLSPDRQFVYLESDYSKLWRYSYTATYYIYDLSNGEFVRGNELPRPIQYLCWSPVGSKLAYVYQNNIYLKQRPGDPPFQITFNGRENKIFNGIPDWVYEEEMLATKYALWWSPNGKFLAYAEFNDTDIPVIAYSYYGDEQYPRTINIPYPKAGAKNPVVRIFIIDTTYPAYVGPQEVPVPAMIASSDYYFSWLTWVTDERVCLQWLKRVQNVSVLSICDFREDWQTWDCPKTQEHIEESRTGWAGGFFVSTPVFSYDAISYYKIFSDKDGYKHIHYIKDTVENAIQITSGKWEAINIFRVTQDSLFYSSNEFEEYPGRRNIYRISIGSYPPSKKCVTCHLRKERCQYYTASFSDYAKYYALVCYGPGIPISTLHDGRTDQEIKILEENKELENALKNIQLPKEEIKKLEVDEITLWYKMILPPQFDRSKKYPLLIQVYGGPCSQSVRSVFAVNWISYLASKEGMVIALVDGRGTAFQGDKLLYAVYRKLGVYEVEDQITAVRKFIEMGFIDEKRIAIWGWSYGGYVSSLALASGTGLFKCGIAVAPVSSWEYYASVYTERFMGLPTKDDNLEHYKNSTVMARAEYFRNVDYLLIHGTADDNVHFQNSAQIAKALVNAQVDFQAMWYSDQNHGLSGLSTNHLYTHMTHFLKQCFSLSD
Experimental: Human FAP protein (Sino Biological, Cat #10464-H07H) was immobilized on a 96-well plate by incubation overnight in a PBS buffer at 4° C. The plate was then blocked by incubation with a PBS containing 1% of BSA for 1 h at 37° C. After blocking, the plate was washed thrice with PBST (PBS containing 0.05% of Tween 20). […] After binding, the plate was washed thrice with PBST, incubated at 37° C. for 1 h with peroxidase-labeled goat anti-human IgG, F(ab′)₂ fragment specific (Jackson Immuno Research, Cat #109-035-097) diluted at 1/15,000 in the binding buffer, washed again, subjected to a chromogenic reaction with TMB, and quenched with 1 M H₂SO₄.

[2] = biological target: T2, cynomolgus FAP protein expressed on 293T cells (293T-cynomolgus FAP) (cynomolgus monkey, UniProt Q12884 1-760 (human entry)); assay: flow cytometry on 293T-cynomolgus FAP cells, PE goat anti-human IgG Fc secondary antibody
T2 sequence: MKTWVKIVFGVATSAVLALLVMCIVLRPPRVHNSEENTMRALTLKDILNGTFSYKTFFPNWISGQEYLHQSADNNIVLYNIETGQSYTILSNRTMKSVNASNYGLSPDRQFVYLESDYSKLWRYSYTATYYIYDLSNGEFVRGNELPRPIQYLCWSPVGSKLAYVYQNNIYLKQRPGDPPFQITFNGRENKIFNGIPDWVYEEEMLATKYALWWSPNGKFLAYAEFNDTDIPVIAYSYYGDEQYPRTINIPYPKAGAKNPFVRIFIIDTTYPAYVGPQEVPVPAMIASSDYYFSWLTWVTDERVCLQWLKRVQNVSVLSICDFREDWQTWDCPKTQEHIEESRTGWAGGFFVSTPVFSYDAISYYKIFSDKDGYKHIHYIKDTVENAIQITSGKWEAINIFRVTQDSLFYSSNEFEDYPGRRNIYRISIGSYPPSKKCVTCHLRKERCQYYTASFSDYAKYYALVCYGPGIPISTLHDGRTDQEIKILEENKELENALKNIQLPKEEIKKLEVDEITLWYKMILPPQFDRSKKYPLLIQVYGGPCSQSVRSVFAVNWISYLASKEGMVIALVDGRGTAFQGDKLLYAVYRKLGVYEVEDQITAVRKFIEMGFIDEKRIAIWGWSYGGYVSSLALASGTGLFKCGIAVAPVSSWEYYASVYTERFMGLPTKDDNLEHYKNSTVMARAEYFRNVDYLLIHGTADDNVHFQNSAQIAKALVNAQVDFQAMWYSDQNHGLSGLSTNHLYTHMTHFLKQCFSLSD
Experimental: (§1) The cells were washed twice with PBS, and then fluorescent secondary antibody R-PE-conjugated AffiniPure Goat Anti-Human IgG, Fcγ Fragment Specific (Jackson Immuno Research, Cat #109-116-098) was added. The cells were incubated at 4° C. for 30 min. The cells were washed twice with PBS and then resuspended, and finally, fluorescence signals were detected using the […] (BD Bioscience) flow cytometer.

[3] = biological target: T3, human DPP4 protein expressed on 293T cells (293T-DPP4) (human, UniProt P27487 1-766); assay: flow cytometry on 293T-DPP4 cells, PE goat anti-human IgG Fc secondary antibody
T3 construct: also called CD26
Experimental: as §1, with “cytometer. […] The antibodies were diluted at 1:100 with PBS, and the cell pellet was resuspended and incubated at 4° C. for 30 min. The cells were washed twice with PBS and then resuspended in 100 μL of PBS, and finally, fluorescence signals were detected using the BD Accuri C5 (BD Bioscience) flow cytometer.” for “cytometer.”

[4] = biological target: T4, human FAP protein expressed on 293T cells (293T-human FAP) (human, UniProt Q12884 1-760); assay: flow cytometry on 293T-human FAP cells, PE goat anti-human IgG Fc secondary antibody
T4 sequence: T2 sequence with P29S, F261V, D417E
Experimental: as §1

[5] = biological target: T2, cynomolgus FAP protein expressed on …; assay: flow cytometry on 293T-cynomolgus FAP cells (panel title on the sheet), PE goat anti-human IgG Fc secondary antibody
Experimental: as §1

[6] = biological target: T4, human FAP protein expressed on 293T …; assay: flow cytometry on 293T-human FAP cells (panel title on the sheet), PE goat anti-human IgG Fc secondary antibody
Experimental: as §1

T3 sequence (P27487 whole entry): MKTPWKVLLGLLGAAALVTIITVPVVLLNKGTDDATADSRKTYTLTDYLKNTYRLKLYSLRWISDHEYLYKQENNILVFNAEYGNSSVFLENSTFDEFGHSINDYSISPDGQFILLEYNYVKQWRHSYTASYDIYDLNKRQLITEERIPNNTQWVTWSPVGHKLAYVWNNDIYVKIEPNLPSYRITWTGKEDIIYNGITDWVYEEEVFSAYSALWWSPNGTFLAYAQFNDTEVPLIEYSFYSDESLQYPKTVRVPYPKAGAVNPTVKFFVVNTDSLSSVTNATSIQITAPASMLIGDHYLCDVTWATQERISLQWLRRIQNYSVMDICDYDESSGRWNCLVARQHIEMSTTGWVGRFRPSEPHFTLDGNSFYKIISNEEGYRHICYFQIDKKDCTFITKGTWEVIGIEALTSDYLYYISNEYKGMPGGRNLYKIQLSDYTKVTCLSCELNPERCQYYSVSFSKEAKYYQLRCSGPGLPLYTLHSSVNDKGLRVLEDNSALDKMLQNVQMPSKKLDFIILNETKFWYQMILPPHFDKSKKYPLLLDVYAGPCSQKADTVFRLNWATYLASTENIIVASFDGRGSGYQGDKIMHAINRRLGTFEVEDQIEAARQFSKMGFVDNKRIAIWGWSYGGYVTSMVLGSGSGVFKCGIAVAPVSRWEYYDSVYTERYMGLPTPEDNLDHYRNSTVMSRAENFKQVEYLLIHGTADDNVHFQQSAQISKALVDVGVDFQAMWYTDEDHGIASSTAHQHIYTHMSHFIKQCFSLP

EC50 [1]: 0.0863 nM | EC50 (read off the curve) [2]: ~1 nM | binding result [3]: no binding (tested: 10 µg/mL) | EC50 (read off the curve) [4]: ~2 nM
B1: sibrotuzumab (humanized reference antibody) (antibody, human IgG1, kappa, V domains shown)
VH: QVQLVQSGAEVKKPGASVKVSCKTSRYTFTEYTIHWVRQAPGQRLEWIGGINPNNGIPNYNQKFKGRVTITVDTSASTAYMELSSLRSEDTAVYYCARRRIAYGYDEGHAMDYWGQGTLVTVSS
VL: DIVMTQSPDSLAVSLGERATINCKSSQSLLYSRNQKNYLAWYQQKPGQPPKLLIFWASTRESGVPDRFSGSGFGTDFTLTISSLQAEDVAVYYCQQYFSYPLTFGQGTKVEIKR

EC50 [1]: 0.0926 nM | EC50 (read off the curve) [2]: 1 to 2 nM | EC50 (read off the curve) [5]: ~4 nM | binding result [3]: no binding (tested: 10 µg/mL) | EC50 (read off the curve) [4]: ~2 nM | EC50 (read off the curve) [6]: ~3 nM
B2: humanized anti-FAP antibody huF19-LG (antibody, human IgG1, kappa, V domains shown)
VH: B1 VH with T24A, R26G, P41T, R44G, V68A, I70M, D73G, A76I, Y95F
VL: DIQMTQSPSSLSASVGDRVTITCKSSQSLLYSRNQKNYLAWFQQKPGKAPKLLIFWASTRESGVPSRFTGSGFGTDFTLTISSLQPEDFATYYCQQYFSYPLTFGQGTKLEIKR
notes: Humanized from murine F19

EC50 (read off the curve) [5]: ~3 nM | EC50 (read off the curve) [6]: ~2 nM
B3: mutant humanized FAP antibody huF19-LG-NGR (antibody, human IgG1, kappa, V domains shown)
VH: B1 VH with T24A, R26G, P41T, R44G, G56R, V68A, I70M, D73G, A76I, Y95F
VL: B2 VL
notes: huF19-LG with G56R (Kabat) in HCDR2; also called optimized FAP antibody; mutant antibody
